In patent US5610063A, “cDNA for α-N-acetyl-galactosaminidase from Gallus domesticus” (Curators of the University of Missouri, priority 1995, dated 1997):
Changes are numbered by the printed parent chain. “Also recorded” adds a separate entry of the source. Each block holds one molecule with its values, some of them ahead of it.

How the values were obtained:
[1] = molecular target: T1, Gallus N-acetyl-α-D-galactosaminidase (Gallus gallus, UniProt Q90744); test: Kinetic parameters (Km, turnover number) of Gallus enzyme; type: biochemical, Gallus domesticus; conditions: Example 1 preparation
T1 construct: the cDNA clone corresponds to the region of the mRNA encoding the mature polypeptide for the chicken α-N-acetyl-galactosaminidase; from tissue; host or cells: chicken liver
T1 sequence (Q90744 1-405 S162A): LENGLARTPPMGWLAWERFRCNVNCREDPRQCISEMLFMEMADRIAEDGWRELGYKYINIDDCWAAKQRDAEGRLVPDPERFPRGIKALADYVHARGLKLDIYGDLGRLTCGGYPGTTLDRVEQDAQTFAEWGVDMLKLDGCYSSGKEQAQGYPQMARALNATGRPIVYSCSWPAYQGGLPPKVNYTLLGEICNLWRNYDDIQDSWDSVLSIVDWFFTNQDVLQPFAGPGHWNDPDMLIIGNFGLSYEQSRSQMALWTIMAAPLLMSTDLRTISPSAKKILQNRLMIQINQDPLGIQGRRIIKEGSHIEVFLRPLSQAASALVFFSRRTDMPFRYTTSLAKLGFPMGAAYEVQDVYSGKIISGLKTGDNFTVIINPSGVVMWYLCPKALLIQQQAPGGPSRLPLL
Description: Enzymatic activity was quantitated during the purification by measuring production of p-nitrophenol (PNP) from PNP-N-acetyl-α-D-galactosaminide or o-nitrophenol (ONP) from ONP-N-acetyl-α-D-galactosaminide. Enzyme aliquots were incubated in 200 μl of 50 mM Na citrate+1 mg/ml BSA+1.0 mM PNP-N-acetyl-α-D-galactosaminide, pH 3.5, at 37° C. The reactions were quenched with 1.0 ml of 0.25M Na2 CO3 and the OD 405 nm was measured. One unit of activity was defined as 1.0 μmole of substrate hydrolyzed per minute.

[2] = test system: human α-N-acetyl-galactosaminidase; conditions: human enzyme; Schram et al, 1977; cited from earlier work
[3] = molecular target: T1, Gallus N-acetyl-α-D-galactosaminidase; test: Substrate specificity (relative activity); type: biochemical, Gallus domesticus; conditions: % of enzyme activity on the corresponding conjugate, 2.5 mM PNP conjugates, pH 3.5
[4] = molecular target: T2, Gallus α-N-acetyl-galactosaminidase (Gallus gallus, UniProt Q90744); test: Affinity ligand chromatography; type: binding, Gallus domesticus; conditions: Affi-Gel 10 coupled ligand
T2 construct: mature glycoprotein, about 145 kDa oligomer
T2 sequence (Q90744 1-405 S162A): T1 sequence (Q90744 1-405 S162A)
Description: Synthesis of affinity ligand and resin: .xi.-aminohexanoyl-α-D-galactopyranosYlamine was synthesized by a modification of the method of Harpaz et al. (1974). Purity of the product was determined by thin-layer chromatography and mass spectroscopy. The ligand was coupled to Affi-Gel™ 10 per the manufacturer's directions. Coupling efficiencies of 80%.
Step 5. After dialysis, the pool was applied to a 1.5×20 cm .xi.-aminohexanoyl-α-D-galactopyranosylamine Affi-Gel™ 10 column equilibrated in 50 mM Na acetate+0.1% Triton X-100+0.01% NAN3, pH 5.0. The column was washed with 90 mls of equilibration buffer, and the enzyme was eluted with 50 mM NaH2 PO4 +100 mM methyl-α-D-galactopyranoside+0.1% Triton X-100+0.01% NAN3, pH 7.0. Active fractions were pooled, concentrated, and dialyzed into 50 mM Na acetate+0.1% Triton X-100+0.01% NaN3, pH 5.0.
7. Load the filtrate onto a 2.5×15.0 cm ε-amino-hexanoyl-α-D-galactopyranosylamine Affi-Gel™ 10 column equilibrated with 10 mM NaH2 PO4, pH 5.5 at 4° C. Wash the column with 300 ml of 75 mM NaH2 PO4 pH 5.5. Elute the enzyme from the column with 300 ml (range 50 to 500) of 50 mM NaH2 PO4 +100 mM D-(+)-Galactose, pH 7.0.

[5] = Aminopeptidase assay with p-nitroaniline (PNA) substrates; type: biochemical; conditions: for Aminopeptidase activity: five PNA substrates
Description: Aminopeptidase assays were performed by incubating aliquots of enzyme with 2.5 mM of various p-nitroaniline (PNA) substrates in 50 mM Na citrate+50 mM NaH2 PO4 +0.1% Triton X-100, pH 5.0 to 8.0 (Macfarlane et al., 1988). The reactions were incubated at 37° C., quenched with 1.0 ml of 0.25M Na2 CO3, and the OD 405 nm was determined. One unit of aminopeptidase activity was defined as 1.0 μmole of PNA hydrolyzed per minute.

[6] = Hata et al., 1992; cited from earlier work
[7] = test system: resorufin-labeled casein; test: Endoprotease (resorufin-labeled casein) assay; type: biochemical; conditions: for endoprotease activity, resorufin-labeled casein assay: sensitivity limit 0.01 trypsin BAEE units
Description: (§1) Endoprotease assays were performed by an adaption of the resorufin-labeled casein assay of Twining (Twining, 1984). The limit of sensitivity of this assay was determined using a trypsin standard. Stable, concentrated, detergent-free enzyme was prepared as described herein. Activity against the blood group antigen on erythrocytes was determined by incubating enzyme at 24°-37° C. for 2-8 hours with either erythrocytes equilibrated in 25 mM Na citrate+50 mM NaH2 PO4 +80 mM NaCl, pH 5.6-5.8, or in 2.5-5 mM Na citrate+300 mM glycine, pH 5.4-5.6. The cells were washed with phosphate buffered saline, pH 7.0, then incubated with varying dilutions of polyclonal or monoclonal antibody, as for example anti-A for A erythrocytes. Other antibodies and buffers could be used for other blood groups as is known in the art. Hemagglutination was performed and titer scored by standard methods (Bryant, 1982).

[8] = test system: human A2 erythrocytes; test: Removal of blood group A epitope from A2 erythrocytes (hemagglutination); type: cell-based; conditions: much higher enzyme concentrations are required
Description: as §1
The enzyme was also tested on human A2 erythrocytes. Removal of the terminal N-acetyl-α-D-galactosaminyl residue from the blood group A epitope, {galNAc(α1-3) gal(β1-R) {fuc(α1-2)} glueNAc(β1-R)}, was achieved by the enzyme as shown in FIG. 8. […] Incubation at 37° C. was necessary because dilute concentrations of glycosidase were used.

[9] = test system: human A2 erythrocytes; test: Erythrocyte indices, hemolysis and morphology after enzyme treatment; type: cell-based
[10] = Selectivity / other glycosidase activities of the enzyme preparation; type: biochemical
[11] = Ionic strength optimum; type: biochemical
[12] = pH optimum; type: biochemical; conditions: for pH optimum: pH 2.0 to 8.0 tested
Description: The pH optima was determined by incubating aliquots of the enzyme in 40 mM Na citrate+40 mM NaH2 PO4 +1 mg/ml BSA+2.5 mM PNP-N-acetyl-α-D-galactosamide, pH 2.0 to 8.0. The ionic strength optimum was determined by incubating aliquots of the enzyme in 2.5 mM Na citrate+1 mg/ml BSA+2.5 mM PNP-N-acetyl-α-D-galactoside+0 to 1.0M NaCl, pH 3.5 and 6.0. The Kms for ONP- and PNP-N-acetyl-α-D-galactosaminide were determined by varying the substrate concentration in 50 mM Na citrate+1 mg/ml BSA, pH 3.5. The native molecular weight was determined by applying a concentrated portion of the enzyme to a 1×45 cm Sephacryl S-200 column equilibrated in 25 mM Na citrate+200 mM NaCl, pH 6.0. SDS polyacrylamide electrophoresis (SDS-PAGE) was performed according to the method of Laemmli and the protein bands developed with Coomassie R-250 (Laemmli, 1970). Amino acid composition was determined on a Beckman amino acid analyzer (Moore et al., 1954).

[13] = pI by chromatofocusing; type: physicochemical; conditions: Example 1 preparation
[14] = Storage stability at 4° C.; type: physicochemical
[15] = preparations isolated by the invention

Molecule: O=[N+]([O-])c1ccc(O[C@H]2O[C@H](CO)[C@H](O)[C@H](O)[C@H]2O)cc1 [PNP-α-D-galactopyranoside]
Km (in words) [1]: high Km
Km [2]: 1000 µM
Relative Activity ([3]; Table IV, Example 1 preparation): 12.74%
Relative Activity ([3]; Table VI, improved purification (Example 2)): 15.79%

Molecule: NCCCCCC(=O)N[C@H]1O[C@H](CO)[C@H](O)[C@H](O)[C@H]1O [.xi.-aminohexanoyl-α-D-galactopyranosylamine]
active site specific affinity ligand (in words) [4]: efficient active site specific affinity ligand

selectivity (in words) ([10]; for PNP-N-acetyl-α-D-galactosaminide): highly selective
B1: α-N-acetyl-galactosaminidase: purified exoglycosidase [EC 3.2.1.49] derived from Gallus domesticus (chicken) liver, degrades human blood group A2 epitope (protein, UniProt Q90744 1-405, looked up)
Alpha-N-acetylgalactosaminidas …: T1 sequence (Q90744 1-405 S162A) with A162S
Aminopeptidase activity ([5]; Example 1 preparation, below limits of detection): ≤ 0.05 units/mg enzyme
Aminopeptidase activity ([5]; Example 2 preparation): less than 0.05 units per mg
aminopeptidase activity (in words) [5, 15]: lacked detectable aminopeptidase
degradation of the human blood group A epitope [6]: degrades the human blood group A epitope
"trypsin-like activity" ([7]; Example 1 preparation): less than 0.78 ng per mg of pure enzyme
proteolytic activity (in words) ([7]; Example 1 preparation): No proteolytic activity was detected
endoprotease activity, resorufin-labeled casein assay ([7]; Example 1 preparation): ≤ 0.01 BAEE units/mg enzyme
"trypsin-like activity" ([7]; Example 2 preparation): less than 0.78 ng per mg of pure enzyme
proteolytic activity (in words) ([7]; Example 2 preparation): no measurable protease activity; also recorded: No proteolytic activity was detected
endoprotease activity, resorufin-labeled casein assay ([7]; Example 2 preparation): less than 0.01 BAEE units/mg enzyme
endoprotease activity (in words) [7, 15]: lacked detectable aminopeptidase and endoprotease activities
deantigenation at lower temperatures and shorter incubations [8]: achieved deantigenation
morphology of treated cells [9]: mixed population of normocytes and spiculated cells
change in erythrocyte mean corpuscular volume ([9]; treated human A2 erythrocytes): insignificant change
change in mean corpuscular hemoglobin ([9]; treated human A2 erythrocytes): insignificant change
change in mean corpuscular hemoglobin concentration ([9]; treated human A2 erythrocytes): insignificant change
visible hemolysis ([9]; treated human A2 erythrocytes): little visible hemolysis
other glycosidase activities (in words) ([10]; preparations of the inventive isolation methods): lack other detectable glycosidase activities
effect of ionic strength on activity ([11]; Example 1 preparation, high or low ionic strengths, pH 3.7): not strongly inhibited
effect of ionic strength on activity ([11]; Example 2 preparation, high / increasing ionic strength (pH 3.5)): unaffected by increasing ionic strength; also recorded: not significantly affected
pH range of activity (in words) ([12]; Example 1 preparation): broad pH range
pH optimum ([12]; Example 1 preparation): 3.7
pH range of activity (in words) ([12]; Example 2 preparation): broad pH range
pH optimum ([12]; Example 2 preparation): 3.4
pI (approximate mean) [13]: ~8.15
loss of activity on storage ([14]; Example 1 preparation, several months): less than 10%
loss of activity on storage ([14]; Example 2 preparation, six months): less than 5%
stability (in words) ([14]; purified enzyme): stable at 4 °C
